Data as given in publication PMC4999191.

Molecular target: calmodulin (CaM agarose beads) (UniProt P62157)
Test: pull-down with CaM-agarose beads, immunoblot (band quantification printed under the lanes)
Settings: parent: 100

Row | Substance | percent of parent
1 | PC1-p30, soluble polycystin-1 cytoplasmic tail L4137P | 29
2 | PC1-p30, soluble polycystin-1 cytoplasmic tail R4150C | 116
